Values after ≈ are worked out from the molar mass of the structure shown. Each block holds one molecule with its values, some of them ahead of it. Positions of bridges follow the written chain, without caps; N, C: chain ends. Residues, ends and D or L forms follow the SMILES beside them.
Columns and labels:
hVEGF-A (8-109) [1] = molecular target: T1, hVEGF-A (8-109) (Homo sapiens, UniProt P15692); assay: Phage competition ELISA; assay type: binding; conditions: phage competition ELISA, FIG. 15
T1 sequence (P15692 214-315): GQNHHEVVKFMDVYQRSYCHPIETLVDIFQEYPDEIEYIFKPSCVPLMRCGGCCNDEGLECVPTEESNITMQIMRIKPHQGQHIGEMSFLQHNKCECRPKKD

hVEGF-A = molecular target: T2, hVEGF-A (Homo sapiens, UniProt P15692); assay: KDR-CHO VEGF assay to determine cellular IC50 (VEGF mediated Tyr phosphorylation of KDR); assay type: cell-based
T2 sequence (P15692 207-395): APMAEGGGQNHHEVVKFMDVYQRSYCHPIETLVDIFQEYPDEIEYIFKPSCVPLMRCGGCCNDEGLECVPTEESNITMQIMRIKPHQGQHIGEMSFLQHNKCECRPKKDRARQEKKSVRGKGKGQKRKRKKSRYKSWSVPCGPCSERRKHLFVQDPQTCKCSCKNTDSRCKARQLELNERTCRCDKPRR
Description: KDR-CHO cells (CHO cells stably transfected with gD tagged-KDR) were grown in cell growth medium (DMEM/Ham's F-12, 10% diafiltered FBS (GIBCO catalog no. 26400), 25 mM HEPES, 2 mM L-GLUTAMAX™). For VEGF stimulation assay, 5×10^4 cells/well were plated in 100 μl of cell plating medium (DMEM/Ham's F-12, 0.2% BSA, 0.25% diafiltered FBS, 25 mM HEPES, 2 mM L-GLUTAMAX™) in 96-well tissue culture plate and incubated at 37° C. overnight. The medium was replaced with 100 I1 of serum-free cell stimulation medium (DMEM/Ham's F-12, 0.5% BSA, 25 mM HEPES) and cells were incubated at 37° C. for 2 hr. One hour before stimulation, the medium was replaced with 50 I1 of serum-free cell stimulation medium. Concurrently, VEGF (50 ng/ml for hVEGF, 100 ng/ml for mVEGF and rVEGF) was pre-incubated with titrated amount of CKP or anti-VEGF in 50 μl of serum-free cell stimulation medium at 37° C. for 1 hour and added to the cells. The cells were stimulated for 15 min at 37 C and the medium is removed. The cells were lysed with 130 I1 of ice-cold cell lysis buffer (150 mM NaCl, 50 mM HEPES, 0.5% Triton-X 100, HALT protease and phosphatase inhibitor cocktail (ThermoFisher Scientific, Inc. catalog no. 78444), 5 mM EDTA). VEGF mediated Tyr phosphorylation of KDR was determined by ELISA-based assay. Briefly, MAXISORP™ 96 well plates (ThermoFisher Scientific, Inc. catalog no. 439454) were coated with 100 I1 of anti-gD antibody diluted in PBS (1 μg/ml) at 4° C. overnight and washed three times with washing buffer (PBS, 0.05% TWEEN®20, pH 7.4). The plates were blocked with 300 I1 of blocking buffer (PBS, 0.5% BSA) at room temperature for 1 hour followed by washing three times with washing buffer. The above KDR-CHO cell lysate (100 μl) was added to each well and incubated at room temperature for 2 hours. The plates were washed four times with washing buffer followed by incubation with 100 I1 of 0.5 μg/ml biotin-conjugated anti-phosphotyrosine (clone 4G10, Millipore catalog no. 16-103) in blocking buffer at room temperature for 2 hours. After washing four times, the plates were incubated with 100 I1 of HRP-conjugated streptavidin in blocking buffer at room temperature for 30 min. After washing four times, the plates were developed with 100 I1 of TMB substrate (BD Biosciences) at room temperature for 20-30 min and stopped by addition of 50 μl of H2SO4 solution. The optical density of each well was determined using a microplate reader set to 450 nm.

hVEGF-A (8-109) [2] = molecular target: T1, hVEGF-A (8-109); assay: SPR binding assay (BIACORE 3000, 37° C.); conditions: SPR affinity (Table 37) and cellular IC50 (Table 38), vs variant without F8Y
Description: Depending on the format of the assay either a streptavidin sensor (SA) or a dextran-coated (CM5) sensor was utilized as described below.
For use with the SA sensor, VEGF-A was first biotinylated (no more than 2 biotin/VEGF-A) by incubating the protein with EZ-link NHS-PEG4-Biotin (Pierce) in a 1:1.5 molar ratio respectively, in PBS for 2 hours on ice. Reaction was then quenched by addition of 10 molar excess of Glycine pH 8.0 and the sample was buffer exchanged into PBS using an Amicon 0.5 mL 3000 MWCO ultra-centrifugal filters (EMD Millipore). The biotinylation state of the protein was verified by LC-MS analysis. Biotinylated VEGF-A was then captured on the surface until a resonance unit (RU) signal of about ˜400. For immobilization of VEGF-A on CM5 sensor, the surface was first activated with a mixture of N-ethyl-N′-(3-dimethylaminopropyl)carbodiimide hydrochloride and N-hydroxysuccinimide (EDC/NHS) according to the supplier instructions. VEGF-A was then diluted into coupling buffer (0.1 M Acetate Buffer, pH 5.0) and injected until the signal reached about ˜400 RU followed by a wash with 1 M ethanolamine pH 8.0 to quench remaining activated sites.
Following the capture step, a series of the peptide concentrations were prepared in HBS-EP buffer with matching DMSO concentrations to 0.1% and injected at a flow rate of […]. The resulting sensorgrams were then analyzed using a 1:1 binding model to obtain kinetic data and affinities using Scrubber 2.0 (BioLogic Software).

Solubility = assay type: physicochemical; conditions: vs variant without F8Y; read-out: improvement of solubility by F8Y substitution
From the text: In variants derived from VEGF_CKP9.54 (such as the variants in Table 35) the amino acid at position 8 is Phe. Therefore, we sought to mutate Phe8 to Tyr I in some of the variants in Table 35, with the goal of improving affinity and/or solubility of the resulting F8Y variant. […] See Table 37, in which the binding affinities of certain variants (as determined by surface plasmon resonance) are compared, and Table 38 in which the potencies of certain variants (as determined by cellular IC50) are compared. […] VEGF_CKP9.54.90.67.F8Y was selected for further follow-up studies.

LRP6 E1E2 = molecular target: T3, LRP6 E1E2 (Homo sapiens, UniProt O75581); assay: Phage selection / spot phage ELISA against LRP6 E1E2; assay type: binding
T3 sequence (O75581 20-630 limits assumed): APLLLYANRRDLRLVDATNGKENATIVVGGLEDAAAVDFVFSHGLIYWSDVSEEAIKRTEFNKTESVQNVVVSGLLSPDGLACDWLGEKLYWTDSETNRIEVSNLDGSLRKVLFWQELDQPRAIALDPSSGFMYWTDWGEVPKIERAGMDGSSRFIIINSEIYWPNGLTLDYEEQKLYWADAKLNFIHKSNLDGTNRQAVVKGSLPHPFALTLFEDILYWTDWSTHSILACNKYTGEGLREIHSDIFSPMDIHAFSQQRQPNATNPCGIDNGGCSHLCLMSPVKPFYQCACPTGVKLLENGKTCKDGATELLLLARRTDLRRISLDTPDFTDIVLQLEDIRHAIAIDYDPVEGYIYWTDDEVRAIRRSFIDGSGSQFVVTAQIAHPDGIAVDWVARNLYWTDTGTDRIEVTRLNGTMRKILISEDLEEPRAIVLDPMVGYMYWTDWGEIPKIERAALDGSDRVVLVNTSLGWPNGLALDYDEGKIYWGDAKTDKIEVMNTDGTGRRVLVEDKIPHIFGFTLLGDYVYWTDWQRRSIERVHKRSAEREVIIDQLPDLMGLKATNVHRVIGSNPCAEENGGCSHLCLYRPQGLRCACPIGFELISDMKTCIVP
Description: After four rounds of binding selection, individual phage clones were picked and inoculated into 450 μl 2YT media containing 50 µg/ml Carbenecillin and M13-KO7 helper phage in 96-well blocks, which were grown at 37° C. overnight. The supernatant was analyzed with spot phage ELISA as follows: hVEGF(8-109) or BSA were coated on 384-well MAXISORP™ immunoplates and phage supernatant diluted (1:3) with PBT buffer was added to the wells. The plates were washed and bound phage was detected with anti-M13-HRP followed by TMB substrate. In these assays, phage binding to BSA alone was tested in parallel to assess background binding. Clones whose binding signals for hVEGF-A (8-109) were more than 3 times higher than to BSA (background) were considered positive. Positive clones were subjected to DNA sequence analysis.
The naïve EETI-II libraries described in Example 2A were cycled through rounds of selection against LRP6 E1E2 protein. Twenty-two unique clones were identified which bound LRP6 E1E2 (Table 46). These initial hits contained variations in amino acid content within loops 1 and 5. […] The newly evolved variants recapitulated a motif which occurs in natural ligands.

mouse or rat VEGF-A = conditions: cited from earlier work

- improvement of binding affinity for hVEGF-A (8-109) compared to parent clone (hVEGF-A (8-109) [1]): approximately 10 fold
Molecule: 9.54-28: C-terminal two-residue extension variant based on 9.54 (Table 39) (GCNIMLPFWGCKQDFDCLAGCICQYYQSCGFH)

Molecule: CC[C@H](C)[C@H](NC(=O)[C@@H]1CSSC[C@H](NC(=O)CN)C(=O)N[C@@H](CC(=O)O)C(=O)N[C@@H](C(C)C)C(=O)N[C@@H](CCSC)C(=O)N[C@@H](CCC(N)=O)C(=O)N2CCC[C@H]2C(=O)N[C@@H](Cc2ccc(O)cc2)C(=O)N[C@@H](Cc2c[nH]c3ccccc23)C(=O)NCC(=O)N[C@H]2CSSC[C@H](NC(=O)[C@H](CC(=O)O)NC(=O)[C@H]([C@@H](C)CC)NC(=O)[C@H](CC(=O)O)NC(=O)[C@@H]3CCCN3C(=O)CNC2=O)C(=O)N[C@@H](CC(C)C)C(=O)N[C@@H](CO)C(=O)N[C@@H](CC(N)=O)C(=O)N1)C(=O)N[C@H]1CSSC[C@@H](C(=O)NCC(=O)O)NC(=O)[C@H](CO)NC(=O)[C@H](CC(N)=O)NC(=O)[C@H](Cc2ccc(O)cc2)NC(=O)[C@H](Cc2c[nH]c3ccccc23)NC(=O)[C@H](Cc2c[nH]cn2)NC1=O [9.63.12.12] (H-GCDVMQPYWGCGPDIDCLSNCICHWYNSCG-OH; disulfide 2-21, 11-17, 23-29; N-terminus and C-terminus assumed)
- FOLD IMPROVEMENT RELATIVE TO VARIANT 9.54.90 (hVEGF-A; Table 36, from cellular IC50): 2.41

Molecule: CC[C@H](C)[C@H](NC(=O)[C@@H]1CSSC[C@H](NC(=O)CN)C(=O)N[C@@H](CC(N)=O)C(=O)N[C@@H]([C@@H](C)CC)C(=O)N[C@@H](CCSC)C(=O)N[C@@H](CC(C)C)C(=O)N2CCC[C@H]2C(=O)N[C@@H](Cc2ccc(O)cc2)C(=O)N[C@@H](Cc2c[nH]c3ccccc23)C(=O)NCC(=O)N[C@H]2CSSC[C@H](NC(=O)[C@H](CCC(=O)O)NC(=O)[C@H](Cc3ccccc3)NC(=O)[C@H](CC(=O)O)NC(=O)[C@H](CCCNC(=N)N)NC(=O)CNC2=O)C(=O)N[C@@H](CCSC)C(=O)N[C@@H](CCC(=O)O)C(=O)N[C@@H](CCC(N)=O)C(=O)N1)C(=O)N[C@H]1CSSC[C@@H](C(=O)NCC(=O)O)NC(=O)[C@H](CO)NC(=O)[C@H](CCC(N)=O)NC(=O)[C@H](Cc2ccc(O)cc2)NC(=O)[C@H](Cc2ccc(O)cc2)NC(=O)[C@H](CCC(N)=O)NC1=O [VEGF_CKP9.54.90.67.F8Y]
- effect of F8Y mutation on affinity/potency (hVEGF-A (8-109) [2]): modest improvement
- solubility (Solubility): ~2000 µg/mL (≈ 572 µM)

Molecule: CNIMLPYWGCGRDFECLAGCVCQYYQSC [VEGF_CKP9.54.90 F7Y A2G]
- cellular potency relative to VEGF_CKP9.54.90 (hVEGF-A; Table 38): slight reduction of cellular potency

Molecule: GCNIMLPFWGCGQSFECLAGCICQYYQSCGGS [9.54.1-63]
- improvement of binding affinity for hVEGF-A (8-109) compared to parent clone (hVEGF-A (8-109) [1]): approximately 10 fold

Molecule: GCNIMLPFWGCGQSFECLAGCICQYYQSCGIA [9.54.1-2]
- improvement of binding affinity for hVEGF-A (8-109) compared to parent clone (hVEGF-A (8-109) [1]): approximately 10 fold

Molecule: GCNIMLPFWGCGQSFECLAGCICQYYQSCGLS [9.54.1-42]
- improvement of binding affinity for hVEGF-A (8-109) compared to parent clone (hVEGF-A (8-109) [1]): approximately 10 fold

Molecule: GCNIMLPFWGCGQSFECLAGCICQYYQSCGTR [9.54.1-36]
- improvement of binding affinity for hVEGF-A (8-109) compared to parent clone (hVEGF-A (8-109) [1]): approximately 10 fold

Molecule: GCNIMLPFWGCGQSFECLAGCICQYYQSCGVH [9.54.1-90]
- improvement of binding affinity for hVEGF-A (8-109) compared to parent clone (hVEGF-A (8-109) [1]): approximately 10 fold

- S/N (signal to noise ratio as compared to BSA control) (LRP6 E1E2; LRP6 E1E2 vs BSA control): 37.36
- ELISA (LRP6 E1E2; binding signal against LRP6 E1E2): 3.10
Molecule: LRP6_CKP6 (GCRNSIKRCKQNSDCLAGCVCSVGHGCG)

Molecule: bevacizumab
- binding to mouse or rat VEGF-A (mouse or rat VEGF-A): do not bind

Molecule: ranibizumab
- binding to mouse or rat VEGF-A (mouse or rat VEGF-A): do not bind
